Measured values as given in US20030148951A1.

Target: putative EMR2 ligand
Test: flow cytometry on human monocyte-derived macrophages; abolished by EGTA

- percent of cells bound: 45 to 50%
Substance: biotinylated soluble EMR2(EGF-1,2,3,4,5) protein-fluorescent bead complex (from UniProt Q9UHX3 24-260) (receptor)
